T1: SNTB1, Q13884
T1 sequence (Q13884 107-205, limits assumed, looked up): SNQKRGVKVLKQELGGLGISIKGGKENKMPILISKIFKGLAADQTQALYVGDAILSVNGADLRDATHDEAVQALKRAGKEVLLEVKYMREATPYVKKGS

T2: MPDZ_12, O75970
T2 sequence (O75970 1857-1958, limits assumed, looked up): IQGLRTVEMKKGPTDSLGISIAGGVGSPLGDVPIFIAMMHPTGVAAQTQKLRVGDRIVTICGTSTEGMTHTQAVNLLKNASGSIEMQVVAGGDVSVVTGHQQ

T3: SNTG2, Q9NY99
T3 sequence (Q9NY99 68-166, limits assumed, looked up): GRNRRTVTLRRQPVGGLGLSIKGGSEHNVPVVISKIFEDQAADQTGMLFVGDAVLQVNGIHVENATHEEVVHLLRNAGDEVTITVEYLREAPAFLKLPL

T4: PDZRN3_1, Q9UPQ7
T4 sequence (Q9UPQ7 244-349, limits assumed, looked up): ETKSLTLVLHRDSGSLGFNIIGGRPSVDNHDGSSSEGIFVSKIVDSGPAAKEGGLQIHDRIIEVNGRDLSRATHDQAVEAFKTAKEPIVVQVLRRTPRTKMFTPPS

T5: RHPN1, Q8TCX5
T5 sequence (Q8TCX5 508-602, limits assumed, looked up): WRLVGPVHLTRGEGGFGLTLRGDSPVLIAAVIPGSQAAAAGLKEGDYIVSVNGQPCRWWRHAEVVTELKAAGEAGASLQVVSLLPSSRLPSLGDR

T6: GRIP1_2, Q9Y3R0
T6 sequence (Q9Y3R0 145-248, limits assumed, looked up): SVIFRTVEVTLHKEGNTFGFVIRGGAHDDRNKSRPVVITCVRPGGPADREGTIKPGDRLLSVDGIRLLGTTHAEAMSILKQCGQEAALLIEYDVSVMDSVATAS

T7: DVL3, Q92997
T7 sequence (Q92997 244-331, limits assumed, looked up): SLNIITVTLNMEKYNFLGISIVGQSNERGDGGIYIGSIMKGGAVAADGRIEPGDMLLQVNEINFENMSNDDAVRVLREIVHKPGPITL

T8: GRIP1_3, Q9Y3R0
T8 sequence (Q9Y3R0 247-346, limits assumed, looked up): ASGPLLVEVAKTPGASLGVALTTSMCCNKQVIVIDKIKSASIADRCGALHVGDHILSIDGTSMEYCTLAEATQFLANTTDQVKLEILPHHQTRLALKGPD

T9: APBA2_1, Q99767
T9 sequence (Q99767 563-664, limits assumed, looked up): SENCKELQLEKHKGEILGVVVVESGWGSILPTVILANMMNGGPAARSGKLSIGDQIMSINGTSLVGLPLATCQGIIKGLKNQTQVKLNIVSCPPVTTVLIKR

T10: LRRC7, Q96NW7
T10 sequence (Q96NW7 1440-1537, limits assumed, looked up): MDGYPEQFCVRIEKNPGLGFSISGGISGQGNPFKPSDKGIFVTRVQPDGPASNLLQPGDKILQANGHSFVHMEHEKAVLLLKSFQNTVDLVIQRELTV

T11: DFNB31_1, Q9P202
T11 sequence (Q9P202 135-233, limits assumed, looked up): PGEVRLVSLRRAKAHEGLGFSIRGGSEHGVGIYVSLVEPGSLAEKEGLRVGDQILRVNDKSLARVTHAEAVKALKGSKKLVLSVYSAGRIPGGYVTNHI

T12: RADIL, Q96JH8
T12 sequence (Q96JH8 971-1071, limits assumed, looked up): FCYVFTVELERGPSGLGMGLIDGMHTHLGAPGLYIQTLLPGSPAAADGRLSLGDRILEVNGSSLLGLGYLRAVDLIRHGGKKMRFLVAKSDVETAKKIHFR


Tests used:
Test in all cases: holdup assay
Parameters in all cases: key: below the threshold = too weak to quantify, mostly under pKd 3.1 to 4
Details in all cases: plain residues with an end cap or a label only (N-terminal biotin on a linker: ado-ado)
DLG2_3, Q15700 = molecular target: DLG2_3, Q15700
NHERF4_2, Q86UT5 = molecular target: NHERF4_2, Q86UT5
NHERF4_2, Q86UT5, sequence (Q86UT5 220-308): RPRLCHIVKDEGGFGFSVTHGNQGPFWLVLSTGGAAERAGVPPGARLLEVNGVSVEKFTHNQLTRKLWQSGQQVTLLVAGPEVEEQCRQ

SNTB1, Q13884 = molecular target: T1, SNTB1, Q13884
DLG1_2, Q12959 = molecular target: DLG1_2, Q12959
DLG1_2, Q12959, sequence (Q12959 314-412): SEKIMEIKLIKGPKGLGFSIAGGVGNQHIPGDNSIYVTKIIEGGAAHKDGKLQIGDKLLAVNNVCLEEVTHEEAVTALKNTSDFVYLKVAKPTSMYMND

MPDZ_12, O75970 = molecular target: T2, MPDZ_12, O75970
SNTG2, Q9NY99 = molecular target: T3, SNTG2, Q9NY99
PDZRN3_1, Q9UPQ7 = molecular target: T4, PDZRN3_1, Q9UPQ7
RHPN1, Q8TCX5 = molecular target: T5, RHPN1, Q8TCX5
GRIP1_2, Q9Y3R0 = molecular target: T6, GRIP1_2, Q9Y3R0
DVL3, Q92997 = molecular target: T7, DVL3, Q92997
ARHGEF12, Q9NZN5-2 = molecular target: ARHGEF12, Q9NZN5-2
ARHGEF12, Q9NZN5-2, sequence (Q9NZN5 other isoform, or with tags, fused parts or gaps): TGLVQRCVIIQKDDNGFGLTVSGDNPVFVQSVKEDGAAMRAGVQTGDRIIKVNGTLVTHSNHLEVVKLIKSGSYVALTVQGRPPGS

DLG4_3, P78352 = molecular target: DLG4_3, P78352
DLG4_3, P78352, sequence (P78352 306-403): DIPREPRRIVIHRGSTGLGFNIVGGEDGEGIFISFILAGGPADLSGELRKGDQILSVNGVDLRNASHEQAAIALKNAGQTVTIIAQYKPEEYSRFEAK

GRIP1_3, Q9Y3R0 = molecular target: T8, GRIP1_3, Q9Y3R0
APBA2_1, Q99767 = molecular target: T9, APBA2_1, Q99767
PARD3_3, Q8TEW0 = molecular target: PARD3_3, Q8TEW0
PARD3_3, Q8TEW0, sequence (Q8TEW0 582-685): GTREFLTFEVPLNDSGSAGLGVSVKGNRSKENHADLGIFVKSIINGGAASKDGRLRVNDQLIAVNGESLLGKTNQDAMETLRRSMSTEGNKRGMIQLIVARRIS

LRRC7, Q96NW7 = molecular target: T10, LRRC7, Q96NW7
MAGI2_3, Q86UL8 = molecular target: MAGI2_3, Q86UL8
MAGI2_3, Q86UL8, sequence (Q86UL8 600-682): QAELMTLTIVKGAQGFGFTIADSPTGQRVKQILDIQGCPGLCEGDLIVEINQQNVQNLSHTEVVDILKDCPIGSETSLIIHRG

SCRIB_1, Q14160 = molecular target: SCRIB_1, Q14160
SCRIB_1, Q14160, sequence (Q14160 718-814): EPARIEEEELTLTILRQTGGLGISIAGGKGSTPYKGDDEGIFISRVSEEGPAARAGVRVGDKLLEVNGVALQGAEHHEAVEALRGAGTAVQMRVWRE

AHNAK1, Q09666 = molecular target: AHNAK1, Q09666
DFNB31_1, Q9P202 = molecular target: T11, DFNB31_1, Q9P202
SCRIB_3, Q14160 = molecular target: SCRIB_3, Q14160
SCRIB_3, Q14160, sequence (Q14160 999-1103): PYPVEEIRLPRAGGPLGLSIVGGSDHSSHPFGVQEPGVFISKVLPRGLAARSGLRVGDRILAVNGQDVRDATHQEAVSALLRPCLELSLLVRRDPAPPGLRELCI

Inadl_10, Q8NI35 = molecular target: Inadl_10, Q8NI35
Inadl_10, Q8NI35, sequence (Q8NI35 1673-1763): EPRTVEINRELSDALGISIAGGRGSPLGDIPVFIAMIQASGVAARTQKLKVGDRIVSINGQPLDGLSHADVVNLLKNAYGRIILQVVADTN

RADIL, Q96JH8 = molecular target: T12, RADIL, Q96JH8
Inadl_4, Q8NI35 = molecular target: Inadl_4, Q8NI35
Inadl_4, Q8NI35, sequence (Q8NI35 547-651): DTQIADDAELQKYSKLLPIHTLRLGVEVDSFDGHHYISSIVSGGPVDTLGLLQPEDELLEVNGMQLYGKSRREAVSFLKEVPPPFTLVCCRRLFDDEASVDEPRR

MAGI2_5, Q86UL8 = molecular target: MAGI2_5, Q86UL8
MAGI2_5, Q86UL8, sequence (Q86UL8 915-1017): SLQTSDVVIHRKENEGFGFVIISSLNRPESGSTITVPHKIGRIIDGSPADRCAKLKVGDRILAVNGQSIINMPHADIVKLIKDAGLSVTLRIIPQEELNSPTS

| pKd (SNTB1, Q13884) | pKd (MPDZ_12, O75970) | pKd (SNTG2, Q9NY99) | pKd (PDZRN3_1, Q9UPQ7) | pKd (RHPN1, Q8TCX5) | pKd (GRIP1_2, Q9Y3R0) | pKd (DVL3, Q92997) | pKd (ARHGEF12, Q9NZN5-2) | pKd (DLG4_3, P78352) | pKd (GRIP1_3, Q9Y3R0) | pKd (APBA2_1, Q99767) | pKd (LRRC7, Q96NW7) | pKd (MAGI2_3, Q86UL8) | pKd (SCRIB_1, Q14160) | pKd (AHNAK1, Q09666) | pKd (DFNB31_1, Q9P202) | pKd (Inadl_10, Q8NI35) | pKd (RADIL, Q96JH8) | pKd (Inadl_4, Q8NI35) | pKd (MAGI2_5, Q86UL8) | Binder | other results |
| --- | --- | --- | --- | --- | --- | --- | --- | --- | --- | --- | --- | --- | --- | --- | --- | --- | --- | --- | --- | --- | --- |
| below the threshold | below the threshold | below the threshold | below the threshold | below the threshold | below the threshold | below the threshold | below the threshold | below the threshold | below the threshold | below the threshold | below the threshold | below the threshold | below the threshold | below the threshold | below the threshold | below the threshold | below the threshold | below the threshold | below the threshold | VKQYADVEGF [HNRNPK, P61978;P61978-2] | pKd (NHERF4_2, Q86UT5): below the threshold; pKd (PARD3_3, Q8TEW0): below the threshold; pKd (SCRIB_3, Q14160): below the threshold |
| below the threshold | below the threshold | below the threshold | below the threshold | 4.03 | below the threshold | below the threshold | below the threshold | below the threshold | below the threshold | below the threshold | below the threshold | below the threshold | 4.18 | below the threshold | 4.21 | below the threshold | below the threshold | below the threshold | 3.71 | VYEVPVETKF [SLC26A3, P40879] | pKd (DLG2_3, Q15700): 3.74; pKd (NHERF4_2, Q86UT5): below the threshold; pKd (DLG1_2, Q12959): 3.59; pKd (PARD3_3, Q8TEW0): below the threshold; pKd (SCRIB_3, Q14160): 4.44 |

Second part, the binder before the results:

| Binder | pKd (SNTB1, Q13884) | pKd (MPDZ_12, O75970) | pKd (SNTG2, Q9NY99) | pKd (PDZRN3_1, Q9UPQ7) | pKd (RHPN1, Q8TCX5) | pKd (GRIP1_2, Q9Y3R0) | pKd (DVL3, Q92997) | pKd (ARHGEF12, Q9NZN5-2) | pKd (DLG4_3, P78352) | pKd (GRIP1_3, Q9Y3R0) | pKd (APBA2_1, Q99767) | pKd (LRRC7, Q96NW7) | pKd (MAGI2_3, Q86UL8) | pKd (SCRIB_1, Q14160) | pKd (AHNAK1, Q09666) | pKd (DFNB31_1, Q9P202) | pKd (Inadl_10, Q8NI35) | pKd (RADIL, Q96JH8) | pKd (Inadl_4, Q8NI35) | pKd (MAGI2_5, Q86UL8) | other results |
| --- | --- | --- | --- | --- | --- | --- | --- | --- | --- | --- | --- | --- | --- | --- | --- | --- | --- | --- | --- | --- | --- |
| SKQFDKNAYV [CLDN10, P78369] | below the threshold | below the threshold | below the threshold | below the threshold | 3.57 | below the threshold | below the threshold | 3.66 | below the threshold | below the threshold | below the threshold | below the threshold | below the threshold | below the threshold | below the threshold | below the threshold | below the threshold | 4.18 | below the threshold | below the threshold | pKd (DLG2_3, Q15700): below the threshold; pKd (NHERF4_2, Q86UT5): below the threshold; pKd (DLG1_2, Q12959): below the threshold; pKd (PARD3_3, Q8TEW0): below the threshold; pKd (SCRIB_3, Q14160): below the threshold |
| PAALPESTHM [SLC9A3, P48764] | below the threshold | below the threshold | below the threshold | below the threshold | below the threshold | below the threshold | below the threshold | below the threshold | below the threshold | below the threshold | below the threshold | below the threshold | below the threshold | 3.57 | below the threshold | below the threshold | below the threshold | below the threshold | below the threshold | below the threshold | pKd (DLG2_3, Q15700): below the threshold; pKd (NHERF4_2, Q86UT5): below the threshold; pKd (DLG1_2, Q12959): below the threshold; pKd (PARD3_3, Q8TEW0): below the threshold; pKd (SCRIB_3, Q14160): 3.55 |
| NTALVESEDL [PALLS, Q8WX93;Q8WX93-1] | below the threshold | below the threshold | below the threshold | below the threshold | below the threshold | below the threshold | below the threshold | below the threshold | below the threshold | below the threshold | below the threshold | below the threshold | below the threshold | below the threshold | below the threshold | below the threshold | below the threshold | below the threshold | below the threshold | below the threshold | pKd (DLG2_3, Q15700): below the threshold; pKd (DLG1_2, Q12959): below the threshold |

From publication PMC9482650, “Quantitative fragmentomics allow affinity mapping of interactomes” (Nature Communications, 2022)
